Laboratory results taken from patent US20200024330A1.

Tests used:
[1] = target: WT JR-FL gp120 (HIV-1 (isolate JR-FL)); assay: ELISA on coated gp120; EC50 by nonlinear regression
[2] = target: JR-FL gp120 ΔV1/ΔV2 (HIV-1 (isolate JR-FL)); assay: as above
[3] = target: HIV-1 JR-CSF Env N386A (HIV-1 isolate JR-CSF) (UniProt P20871); assay: cell-based or functional assay
[4] = target: HIV-1 JR-CSF Env N301A (HIV-1 JR-CSF) (UniProt P20871); assay: cell-based or functional assay
[5] = target: HIV-1 JR-CSF Env S334A (HIV-1 isolate JR-CSF) (UniProt P20871); assay: cell-based or functional assay
[6] = target: Env of the clade F HIV-1 pseudoviruses of the cross-clade 162-pseudovirus panel (n = 15); assay: cell-based or functional assay
[7] = target: Env of the clade D HIV-1 pseudoviruses of the cross-clade 162-pseudovirus panel (n = 25); assay: cell-based or functional assay
[8] = target: HIV-1 JR-CSF Env T297A (HIV-1 JR-CSF) (UniProt P20871); assay: cell-based or functional assay
[9] = target: Env of the clade G HIV-1 pseudoviruses of the cross-clade 162-pseudovirus panel (n = 15); assay: cell-based or functional assay
[10] = target: HIV-1 JR-CSF Env H330A (HIV-1 isolate JR-CSF) (UniProt P20871); assay: cell-based or functional assay
[11] = target: HIV-1 JR-CSF Env S393A (HIV-1 (isolate JR-CSF)) (UniProt P20871); assay: cell-based or functional assay
[12] = target: HIV-1 JR-CSF Env T341A (HIV-1 isolate JR-CSF) (UniProt P20871); assay: cell-based or functional assay
[13] = target: HIV-1 JR-CSF Env I420A (HIV-1 (isolate JR-CSF)) (UniProt P20871); assay: cell-based or functional assay
[14] = target: HIV-1 JR-CSF Env T394A (HIV-1 (isolate JR-CSF)) (UniProt P20871); assay: cell-based or functional assay
[15] = target: HIV-1 JR-CSF Env R315A (HIV-1 isolate JR-CSF) (UniProt P20871); assay: cell-based or functional assay
[16] = target: HIV-1 JR-CSF Env N295A (HIV-1 JR-CSF) (UniProt P20871); assay: cell-based or functional assay
[17] = target: HIV-1 JR-CSF Env S199A (HIV-1 JR-CSF) (UniProt P20871); assay: cell-based or functional assay
[18] = target: HIV-1 JR-CSF Env R350A (HIV-1 isolate JR-CSF) (UniProt P20871); assay: cell-based or functional assay
[19] = target: HIV-1 JR-CSF Env R419A (HIV-1 (isolate JR-CSF)) (UniProt P20871); assay: cell-based or functional assay
[20] = target: HIV-1 JR-CSF Env T320A (HIV-1 isolate JR-CSF) (UniProt P20871); assay: cell-based or functional assay
[21] = target: HIV-1 Env of isolate MGRM-C-026 (HIV-1); assay: cell-based or functional assay
[22] = target: HIV-1 JR-CSF Env I307A (HIV-1 JR-CSF) (UniProt P20871); assay: cell-based or functional assay
[23] = target: HIV-1 JR-CSF Env N276A (HIV-1 JR-CSF) (UniProt P20871); assay: cell-based or functional assay
[24] = target: HIV-1 Env of isolate JR-CSF (HIV-1) (UniProt P20871); assay: cell-based or functional assay
[25] = target: HIV-1 JR-CSF Env N262A (HIV-1 JR-CSF) (UniProt P20871); assay: cell-based or functional assay
[26] = target: HIV-1 JR-CSF Env N411A (HIV-1 (isolate JR-CSF)) (UniProt P20871); assay: cell-based or functional assay
[27] = target: HIV-1 JR-CSF Env T303A (HIV-1 JR-CSF) (UniProt P20871); assay: cell-based or functional assay
[28] = target: HIV-1 Env of isolate 92TH021 (HIV-1); assay: cell-based or functional assay
[29] = target: HIV-1 JR-CSF Env D325A (HIV-1 isolate JR-CSF) (UniProt P20871); assay: cell-based or functional assay
[30] = target: HIV-1 JR-CSF Env I309A (HIV-1 JR-CSF) (UniProt P20871); assay: cell-based or functional assay
[31] = target: Env of the clade A HIV-1 pseudoviruses of the cross-clade 162-pseudovirus panel (n = 26); assay: cell-based or functional assay
[32] = target: HIV-1 JR-CSF Env N339A (HIV-1 isolate JR-CSF) (UniProt P20871); assay: cell-based or functional assay
[33] = target: HIV-1 JR-CSF Env K343A (HIV-1 isolate JR-CSF) (UniProt P20871); assay: cell-based or functional assay
[34] = target: HIV-1 JR-CSF Env F210A (HIV-1 JR-CSF) (UniProt P20871); assay: cell-based or functional assay
[35] = target: HIV-1 JR-CSF Env E321aA (HIV-1 isolate JR-CSF) (UniProt P20871); assay: cell-based or functional assay
[36] = target: HIV-1 JR-CSF Env P313A (HIV-1 JR-CSF) (UniProt P20871); assay: cell-based or functional assay
[37] = target: Env of the clade C HIV-1 pseudoviruses of the cross-clade 162-pseudovirus panel (n = 27); assay: cell-based or functional assay
[38] = target: HIV-1 JR-CSF Env F317A (HIV-1 isolate JR-CSF) (UniProt P20871); assay: cell-based or functional assay
[39] = target: HIV-1 JR-CSF Env T388A (HIV-1 (isolate JR-CSF)) (UniProt P20871); assay: cell-based or functional assay

B1: PGT-125 (antibody, V domains shown)
VH: QSQLQESGPRLVEASETLSLTCNVSGESTGACTYFWGWVRQAPGKGLEWIGSLSHCQSFWGSGWTFHNPSLKSRLTISLDTPKNQVFLKLTSLTAADTATYYCARFDGEVLVYNHWPKPAWVDLWGRGIPVTVSS
VL: QSALTQPPSASGSPGQSITISCNGTATNFVSWYQQFPDKAPKLIIFGVDKRPPGVPDRFSGSRSGTTASLTVSRLQTDDEAVYYCGSLVGNWDVIFGGGTTLTVL
For B1, which EC50 [1] is on record?
Its EC50 is 0.2 mg/L.

What about the EC50 [2] of the same binder?
Its EC50 is 0.6 mg/L.

What about the Fold IC50 increase relative to wild-type [3] of the same binder?
The Fold IC50 increase relative to wild-type was 0.8 fold.

And the Fold IC50 increase relative to wild-type [4]?
Its Fold IC50 increase relative to wild-type is 213 fold.

And the Fold IC50 increase relative to wild-type [5]?
The Fold IC50 increase relative to wild-type was 0.8 fold.

And the Median IC50 against viruses neutralized with an IC50 <50 µg/ml [6]?
The Median IC50 against viruses neutralized with an IC50 <50 µg/ml was 0.04 mg/L.

What about the Median IC50 against viruses neutralized with an IC50 <50 µg/ml [7] of the same binder?
Its Median IC50 against viruses neutralized with an IC50 <50 µg/ml is 0.09 mg/L.

What about the Fold IC50 increase relative to wild-type [8] of the same binder?
The Fold IC50 increase relative to wild-type was 0.9 fold.

What about the Median IC50 against viruses neutralized with an IC50 <50 µg/ml [9] of the same binder?
The Median IC50 against viruses neutralized with an IC50 <50 µg/ml was 0.02 mg/L.

And the Fold IC50 increase relative to wild-type [10]?
Its Fold IC50 increase relative to wild-type is 0.7 fold.

And the Fold IC50 increase relative to wild-type [11]?
Its Fold IC50 increase relative to wild-type is 0.5 fold.

And the Fold IC50 increase relative to wild-type [12]?
Its Fold IC50 increase relative to wild-type is 1.1 fold.

And the Fold IC50 increase relative to wild-type [13]?
The Fold IC50 increase relative to wild-type was 1.1 fold.

What about the Fold IC50 increase relative to wild-type [14] of the same binder?
Its Fold IC50 increase relative to wild-type is 0.6 fold.

And the Fold IC50 increase relative to wild-type [15]?
Its Fold IC50 increase relative to wild-type is 0.9 fold.

And the Fold IC50 increase relative to wild-type [16]?
Its Fold IC50 increase relative to wild-type is 0.8 fold.

What about the Fold IC50 increase relative to wild-type [17] of the same binder?
The Fold IC50 increase relative to wild-type was 0.7 fold.

And the Fold IC50 increase relative to wild-type [18]?
The Fold IC50 increase relative to wild-type was 0.6 fold.

And the Fold IC50 increase relative to wild-type [19]?
Its Fold IC50 increase relative to wild-type is 1 fold.

What about the Fold IC50 increase relative to wild-type [20] of the same binder?
Its Fold IC50 increase relative to wild-type is 0.8 fold.

And the Polyclonal Transfectant Neutralization Index (well 5123 A6) [21]?
The Polyclonal Transfectant Neutralization Index (well 5123 A6) was 88.3.

And the Primary Neutralization Index (B cell culture well 5123 A6) [21]?
The Primary Neutralization Index (B cell culture well 5123 A6) was 512.

And the Fold IC50 increase relative to wild-type [22]?
Its Fold IC50 increase relative to wild-type is 5 fold.

And the Fold IC50 increase relative to wild-type [23]?
Its Fold IC50 increase relative to wild-type is 0.9 fold.

And the Polyclonal Transfectant Neutralization Index (well 5123 A6) [24]?
The Polyclonal Transfectant Neutralization Index (well 5123 A6) was 119.

What about the Primary Neutralization Index (B cell culture well 5123 A6) [24] of the same binder?
Its Primary Neutralization Index (B cell culture well 5123 A6) is 1730.

And the Fold IC50 increase relative to wild-type [25]?
The Fold IC50 increase relative to wild-type was 0.9 fold.

And the Fold IC50 increase relative to wild-type [26]?
Its Fold IC50 increase relative to wild-type is 0.5 fold.

And the Fold IC50 increase relative to wild-type [27]?
Its Fold IC50 increase relative to wild-type is > 250 fold.

What about the IC50 (µg/mL), pseudovirus neutralization [28] of the same binder?
The IC50 (µg/mL), pseudovirus neutralization was 0.006 µg/mL.

What about the Polyclonal Transfectant Neutralization Index (well 5123 A6) [28] of the same binder?
The Polyclonal Transfectant Neutralization Index (well 5123 A6) was 50.6.

And the Primary Neutralization Index (B cell culture well 5123 A6) [28]?
The Primary Neutralization Index (B cell culture well 5123 A6) was 133.

And the Fold IC50 increase relative to wild-type [29]?
The Fold IC50 increase relative to wild-type was 0.4 fold.

What about the Fold IC50 increase relative to wild-type [30] of the same binder?
Its Fold IC50 increase relative to wild-type is 1 fold.

What about the Median IC50 against viruses neutralized with an IC50 <50 µg/ml [31] of the same binder?
The Median IC50 against viruses neutralized with an IC50 <50 µg/ml was 0.01 mg/L.

And the Fold IC50 increase relative to wild-type [32]?
Its Fold IC50 increase relative to wild-type is 0.9 fold.

What about the Fold IC50 increase relative to wild-type [33] of the same binder?
Its Fold IC50 increase relative to wild-type is 0.7 fold.

What about the Fold IC50 increase relative to wild-type [34] of the same binder?
Its Fold IC50 increase relative to wild-type is 1.4 fold.

And the Fold IC50 increase relative to wild-type [35]?
Its Fold IC50 increase relative to wild-type is 1 fold.

And the Fold IC50 increase relative to wild-type [36]?
The Fold IC50 increase relative to wild-type was 0.3 fold.

What about the Median IC50 against viruses neutralized with an IC50 <50 µg/ml [37] of the same binder?
The Median IC50 against viruses neutralized with an IC50 <50 µg/ml was 1.83 mg/L.

What about the Fold IC50 increase relative to wild-type [38] of the same binder?
The Fold IC50 increase relative to wild-type was 1.8 fold.

And the Fold IC50 increase relative to wild-type [39]?
Its Fold IC50 increase relative to wild-type is 0.6 fold.
